Patent US20220387579A1
pKd: −log10 of the molar value.

Target: RSV F A strain Viral Protein (Respiratory Syncytial Virus A strain)
Assay: SPR

For Palivizumab, the pKd was 9.59.
